From the supplement of paper PMC10065799, “High-throughput profiling of sequence recognition by tyrosine kinases and SH2 domains using bacterial peptide display” (eLife, 2023)

How the values were obtained:
Fes = Fes (UniProt P07332); assay: phosphorylation enrichment, bacterial display (enrichment ratio); higher = better substrate or ligand; peptides without Tyr show the background
Jak2 = Jak2 (UniProt O60674); assay: as above
FGFR1 = FGFR1 (UniProt P11362); assay: as above
Fyn = Fyn (UniProt P06241); assay: as above
Fyn, sequence (P06241 whole entry, looked up): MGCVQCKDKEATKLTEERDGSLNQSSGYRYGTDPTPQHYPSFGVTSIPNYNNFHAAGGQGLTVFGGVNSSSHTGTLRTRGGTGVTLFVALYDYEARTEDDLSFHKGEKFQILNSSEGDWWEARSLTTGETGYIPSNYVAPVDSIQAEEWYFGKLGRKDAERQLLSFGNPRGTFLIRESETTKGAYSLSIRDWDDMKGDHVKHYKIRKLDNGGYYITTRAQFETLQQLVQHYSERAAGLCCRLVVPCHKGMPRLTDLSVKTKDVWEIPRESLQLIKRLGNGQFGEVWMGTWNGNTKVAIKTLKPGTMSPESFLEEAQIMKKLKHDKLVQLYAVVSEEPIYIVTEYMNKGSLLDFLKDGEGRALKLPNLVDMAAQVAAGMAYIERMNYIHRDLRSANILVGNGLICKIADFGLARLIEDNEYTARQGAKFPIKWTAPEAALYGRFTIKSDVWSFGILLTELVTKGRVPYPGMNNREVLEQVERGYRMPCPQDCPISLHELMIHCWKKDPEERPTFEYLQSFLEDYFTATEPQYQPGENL

EPHB2 = EPHB2 (UniProt P29323); assay: as above
Fer (mouse) = assay: as above
Hck = Hck (UniProt P08631); assay: as above
Hck, sequence (P08631 whole entry, looked up): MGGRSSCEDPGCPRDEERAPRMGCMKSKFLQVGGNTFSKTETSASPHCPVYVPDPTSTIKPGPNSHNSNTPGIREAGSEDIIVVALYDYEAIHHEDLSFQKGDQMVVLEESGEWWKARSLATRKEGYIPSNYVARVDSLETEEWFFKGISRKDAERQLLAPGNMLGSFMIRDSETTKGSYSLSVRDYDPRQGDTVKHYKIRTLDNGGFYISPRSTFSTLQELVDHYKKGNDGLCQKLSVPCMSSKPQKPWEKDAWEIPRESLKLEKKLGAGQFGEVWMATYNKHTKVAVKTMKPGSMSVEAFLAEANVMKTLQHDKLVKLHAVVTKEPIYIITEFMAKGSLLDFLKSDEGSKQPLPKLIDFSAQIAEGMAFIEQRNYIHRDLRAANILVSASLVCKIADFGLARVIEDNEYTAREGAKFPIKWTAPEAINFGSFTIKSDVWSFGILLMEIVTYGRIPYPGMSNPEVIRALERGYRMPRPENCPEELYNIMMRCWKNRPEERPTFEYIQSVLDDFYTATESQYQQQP

c-Src = assay: as above
FGFR3 = FGFR3 (UniProt P22607); assay: as above
FGFR3, sequence (P22607 whole entry, looked up): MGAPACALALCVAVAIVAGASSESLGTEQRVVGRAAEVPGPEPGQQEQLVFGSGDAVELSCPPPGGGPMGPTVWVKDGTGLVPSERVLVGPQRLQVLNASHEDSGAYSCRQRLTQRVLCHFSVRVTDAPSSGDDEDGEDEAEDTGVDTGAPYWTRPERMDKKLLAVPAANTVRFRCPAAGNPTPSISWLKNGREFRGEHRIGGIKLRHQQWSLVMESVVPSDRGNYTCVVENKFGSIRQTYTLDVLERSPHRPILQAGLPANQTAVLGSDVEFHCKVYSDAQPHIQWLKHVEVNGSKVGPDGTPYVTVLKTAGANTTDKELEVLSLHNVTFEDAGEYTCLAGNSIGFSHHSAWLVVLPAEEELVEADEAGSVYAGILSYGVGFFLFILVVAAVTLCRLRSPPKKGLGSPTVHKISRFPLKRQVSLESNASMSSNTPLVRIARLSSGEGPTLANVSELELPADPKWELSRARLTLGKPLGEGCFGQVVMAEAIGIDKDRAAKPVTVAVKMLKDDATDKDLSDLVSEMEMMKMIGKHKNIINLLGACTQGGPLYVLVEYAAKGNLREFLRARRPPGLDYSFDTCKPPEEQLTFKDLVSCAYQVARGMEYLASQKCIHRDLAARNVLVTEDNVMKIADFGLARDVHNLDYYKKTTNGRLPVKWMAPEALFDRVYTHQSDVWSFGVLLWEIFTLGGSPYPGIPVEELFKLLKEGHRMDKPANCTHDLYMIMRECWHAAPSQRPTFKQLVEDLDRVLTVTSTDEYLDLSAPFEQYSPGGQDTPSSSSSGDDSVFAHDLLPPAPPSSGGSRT

EPHB1 = EPHB1 (UniProt P54762); assay: as above
c-Abl (mouse) = assay: as above
AncSZ = assay: as above
MERTK = MERTK (UniProt Q12866); assay: as above
MERTK, sequence (Q12866 whole entry, looked up): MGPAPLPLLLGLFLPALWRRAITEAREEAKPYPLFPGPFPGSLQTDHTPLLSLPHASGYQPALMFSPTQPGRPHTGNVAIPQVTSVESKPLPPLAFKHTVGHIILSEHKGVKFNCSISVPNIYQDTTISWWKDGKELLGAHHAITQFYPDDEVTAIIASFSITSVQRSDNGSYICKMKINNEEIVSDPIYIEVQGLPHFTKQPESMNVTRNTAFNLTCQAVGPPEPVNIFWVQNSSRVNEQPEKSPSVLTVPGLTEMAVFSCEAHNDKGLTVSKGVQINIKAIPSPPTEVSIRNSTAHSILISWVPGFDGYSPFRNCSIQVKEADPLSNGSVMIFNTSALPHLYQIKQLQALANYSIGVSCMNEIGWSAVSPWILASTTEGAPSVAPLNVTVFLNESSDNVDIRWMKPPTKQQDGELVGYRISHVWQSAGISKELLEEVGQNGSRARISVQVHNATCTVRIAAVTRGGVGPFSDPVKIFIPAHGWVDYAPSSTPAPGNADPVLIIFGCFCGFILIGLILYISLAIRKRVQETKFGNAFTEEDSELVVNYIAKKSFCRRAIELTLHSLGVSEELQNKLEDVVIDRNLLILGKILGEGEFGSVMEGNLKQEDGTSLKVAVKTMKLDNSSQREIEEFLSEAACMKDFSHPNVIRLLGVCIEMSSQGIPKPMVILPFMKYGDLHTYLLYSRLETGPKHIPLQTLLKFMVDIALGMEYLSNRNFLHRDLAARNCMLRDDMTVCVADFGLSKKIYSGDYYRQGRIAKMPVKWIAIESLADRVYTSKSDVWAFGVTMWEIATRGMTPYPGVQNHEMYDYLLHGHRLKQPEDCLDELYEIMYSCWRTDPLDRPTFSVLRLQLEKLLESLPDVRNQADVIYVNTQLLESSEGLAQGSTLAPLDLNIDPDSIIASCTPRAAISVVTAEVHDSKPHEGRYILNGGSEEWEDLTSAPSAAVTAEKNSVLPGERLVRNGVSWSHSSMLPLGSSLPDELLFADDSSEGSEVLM

Grb2 SH2 = Grb2 SH2 (UniProt P62993); assay: SH2 binding enrichment of the phosphorylated peptide, bacterial display (enrichment ratio); higher = better substrate or ligand; peptides without Tyr show the background
SHP2-C SH2 = assay: as above
c-Src SH2 = assay: as above
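Throughout, for SH2 binding enrichment of the phosphorylated peptide, bacterial display: peptide library displayed on the E. coli surface as eCPX fusions, selected cells deep-sequenced, score is each peptide's frequency after selection divided by its frequency in the input.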
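Throughout, for phosphorylation enrichment, bacterial display: 11-residue human phosphosite peptides and single-mutation variants displayed on the E. coli surface, counted by deep sequencing, each peptide's frequency after selection divided by its frequency in the unselected input library; frequency after pTyr selection over input frequency; kinase dosed for 20-30% of maximal phosphorylation in three min.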

Jak2, sequence (O60674 whole entry, looked up): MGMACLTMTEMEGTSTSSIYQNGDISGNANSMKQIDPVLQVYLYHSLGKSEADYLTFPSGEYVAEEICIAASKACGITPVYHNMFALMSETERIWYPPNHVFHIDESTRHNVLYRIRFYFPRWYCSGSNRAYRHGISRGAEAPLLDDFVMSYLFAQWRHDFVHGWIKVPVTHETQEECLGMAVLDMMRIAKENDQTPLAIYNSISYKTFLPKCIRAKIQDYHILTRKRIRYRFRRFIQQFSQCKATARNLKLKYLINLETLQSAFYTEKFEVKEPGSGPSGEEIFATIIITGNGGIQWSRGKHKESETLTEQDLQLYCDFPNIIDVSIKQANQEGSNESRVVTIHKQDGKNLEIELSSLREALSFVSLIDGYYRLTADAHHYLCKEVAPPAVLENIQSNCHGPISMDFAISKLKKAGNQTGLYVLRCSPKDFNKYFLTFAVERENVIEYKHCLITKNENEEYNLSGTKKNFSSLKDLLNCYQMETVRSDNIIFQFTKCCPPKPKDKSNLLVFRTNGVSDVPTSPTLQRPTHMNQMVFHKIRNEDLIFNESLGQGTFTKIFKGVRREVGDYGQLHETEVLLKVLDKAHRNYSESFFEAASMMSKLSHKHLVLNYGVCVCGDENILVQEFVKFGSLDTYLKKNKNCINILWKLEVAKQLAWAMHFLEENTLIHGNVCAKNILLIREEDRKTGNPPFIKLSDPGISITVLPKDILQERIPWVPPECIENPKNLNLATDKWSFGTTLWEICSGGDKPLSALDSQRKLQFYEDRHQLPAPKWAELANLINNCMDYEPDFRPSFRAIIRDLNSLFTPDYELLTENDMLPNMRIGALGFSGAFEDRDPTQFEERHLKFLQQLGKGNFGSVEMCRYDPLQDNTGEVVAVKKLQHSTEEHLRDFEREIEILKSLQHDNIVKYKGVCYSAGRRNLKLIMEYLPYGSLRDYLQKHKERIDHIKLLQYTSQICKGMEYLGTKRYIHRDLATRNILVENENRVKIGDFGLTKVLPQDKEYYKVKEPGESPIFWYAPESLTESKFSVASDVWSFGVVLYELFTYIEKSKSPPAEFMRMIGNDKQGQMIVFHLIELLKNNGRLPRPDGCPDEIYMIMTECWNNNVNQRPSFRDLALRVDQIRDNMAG
Fes, sequence (P07332 whole entry, looked up): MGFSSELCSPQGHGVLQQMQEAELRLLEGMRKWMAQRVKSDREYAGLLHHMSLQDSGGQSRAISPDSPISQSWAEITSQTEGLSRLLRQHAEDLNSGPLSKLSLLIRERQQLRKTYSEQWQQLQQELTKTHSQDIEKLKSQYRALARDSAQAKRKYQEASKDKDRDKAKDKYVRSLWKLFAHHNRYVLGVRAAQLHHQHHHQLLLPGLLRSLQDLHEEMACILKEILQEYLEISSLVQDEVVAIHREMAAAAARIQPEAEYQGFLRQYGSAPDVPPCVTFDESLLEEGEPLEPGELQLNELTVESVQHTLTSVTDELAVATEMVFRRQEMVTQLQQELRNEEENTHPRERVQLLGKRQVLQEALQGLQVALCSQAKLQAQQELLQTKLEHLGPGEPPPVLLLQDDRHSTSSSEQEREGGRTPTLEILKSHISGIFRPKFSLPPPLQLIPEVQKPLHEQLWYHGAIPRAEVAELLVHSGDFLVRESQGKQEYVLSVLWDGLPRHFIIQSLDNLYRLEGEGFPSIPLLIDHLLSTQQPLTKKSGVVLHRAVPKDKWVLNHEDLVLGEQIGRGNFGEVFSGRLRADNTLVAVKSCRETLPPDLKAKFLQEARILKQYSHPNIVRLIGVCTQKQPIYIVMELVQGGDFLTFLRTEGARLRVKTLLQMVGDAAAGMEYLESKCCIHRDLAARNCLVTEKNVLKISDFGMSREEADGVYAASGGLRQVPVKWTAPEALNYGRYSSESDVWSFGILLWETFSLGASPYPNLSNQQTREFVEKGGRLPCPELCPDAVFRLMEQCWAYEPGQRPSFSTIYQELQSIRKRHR

SH2 binding enrichment (Grb2 SH2)	SH2 binding enrichment (SHP2-C SH2)	SH2 binding enrichment (c-Src SH2)	Sequence	phosphorylation enrichment (Fes)	phosphorylation enrichment (Jak2)	phosphorylation enrichment (FGFR1)	phosphorylation enrichment (Fyn)	phosphorylation enrichment (EPHB2)	phosphorylation enrichment (Fer (mouse))	phosphorylation enrichment (Hck)	phosphorylation enrichment (c-Src)	phosphorylation enrichment (FGFR3)	phosphorylation enrichment (EPHB1)	phosphorylation enrichment (c-Abl (mouse))	phosphorylation enrichment (AncSZ)	phosphorylation enrichment (MERTK)
0.739	0.477	0.43	SECCKYKIDNL [OSMR_Y689_P694L]	0.939	0.823	0.462	0.446	0.384	0.473	0.428	0.436	0.685	0.551	0.748	0.864	0.432
0.532	0.344	0.456	KRRGPYEMSPS [PLPP7_Y172_T174M]	0.452	0.459	0.338	0.387	0.371	0.345	0.445	0.45	0.377	0.323	0.508	0.58	0.402
0.674	0.605	0.463	MRALIYNSSTV [PLEKHA7_Y243_A248V]	0.824	0.726	0.447	0.714	0.657	0.51	0.754	0.77	0.57	0.447	0.872	0.669	0.405
0.776	0.628	0.472	EDEGLYMVRVP [MYOM3_Y343]	1.43	1.24	0.56	3.03	1.71	1.89	4.63	3.41	0.736	1.74	0.812	1.58	1.79
0.857	0.798	0.369	KVVNEYVTKGQ [MYH7_Y410_G407V]	0.601	0.53	0.431	0.36	0.451	0.393	0.402	0.433	0.489	0.358	0.513	0.806	0.375
0.794	0.9	0.477	GSSEGYLHMVH [NIPBL_Y247_D246G]	0.679	0.617	0.388	0.368	0.427	0.424	0.396	0.403	0.474	0.333	0.491	0.616	0.419
1.4	2.05	1.68	CTTIHYNFMCK [TP53_Y234_N239K_YF]	0.816	0.631	0.418	0.476	0.387	0.351	0.533	0.413	0.489	0.403	0.562	0.659	0.407

Further lines, the sequence ahead of its results:

Sequence	SH2 binding enrichment (Grb2 SH2)	SH2 binding enrichment (SHP2-C SH2)	SH2 binding enrichment (c-Src SH2)	phosphorylation enrichment (Fes)	phosphorylation enrichment (Jak2)	phosphorylation enrichment (FGFR1)	phosphorylation enrichment (Fyn)	phosphorylation enrichment (EPHB2)	phosphorylation enrichment (Fer (mouse))	phosphorylation enrichment (Hck)	phosphorylation enrichment (c-Src)	phosphorylation enrichment (FGFR3)	phosphorylation enrichment (EPHB1)	phosphorylation enrichment (c-Abl (mouse))	phosphorylation enrichment (AncSZ)	phosphorylation enrichment (MERTK)
KAESWYQTKYE [KRT75_Y342_E337K]	0.805	0.648	0.479	0.698	0.471	0.367	0.485	0.524	0.57	0.459	0.457	0.491	0.399	0.396	0.763	0.433
ADNSAYLMGLN [MYH7_Y386_K383N]	0.993	0.723	0.556	0.932	1.11	0.512	0.514	0.566	0.497	0.603	0.587	0.61	0.629	0.738	0.865	0.473
KLSFSYGRALQ [ALDOB_Y302]	1.04	0.955	0.592	0.994	0.847	0.519	0.388	0.483	0.413	0.46	0.417	0.642	0.548	0.694	0.9	0.407
CKLCQYFLDHL [ATRX_Y1849_Y1847C_YF]	1.46	1.18	1.1	1.18	1.16	0.689	0.449	0.612	0.442	0.456	0.766	0.661	0.571	0.89	1.28	0.49
QAIDEYEKWLE [MAP9_Y603_N601D]	0.757	0.805	0.432	1.41	1.46	0.515	0.66	0.716	0.581	0.607	0.479	1.34	1.06	0.85	1.5	0.996
RHLQEYQDPLN [GFAP_Y349_L352P]	0.949	0.842	0.645	0.959	0.878	0.723	0.579	0.739	0.472	0.517	0.503	0.668	0.504	0.753	0.823	0.576
PLRADYLIARV [HLCS_Y635]	0.896	0.711	0.46	1.1	0.747	0.8	0.319	0.487	0.515	0.461	0.582	0.495	0.312	0.853	0.777	0.717
ACRSLYGGFVE [MVD_Y164]	0.751	0.808	0.574	1.04	0.698	0.625	11.2	0.642	0.605	7.94	7.11	0.727	0.568	0.511	1.11	0.621
RIVEIYSRRLQ [GCH1_Y175]	0.789	0.879	0.617	0.976	0.794	0.777	0.921	0.92	0.556	1.02	0.803	0.96	0.645	0.747	0.942	0.678
